Legend:
hBMP2 = molecular target: T1, hBMP2 (human, UniProt P12643 283-396); test: SPR (Biacore 4000), captured on anti-human Fc, 200 nM ligand injected, 37 C
T1 construct: Bought protein; also called BPM2
Protocol: (§1) For the binding experiment, a Biacore 4000 instrument was used. […] All Biacore binding studies were performed in HBS-T running buffer (0.01 M HEPES pH 7.4, 0.5 M NaCl, 3 mM EDTA, 0.5 mg/ml bovine serum albumin, 0.05% v/v Surfactant P20). […] All binding measurements were performed at 37° C. […] Over the captured antibody surface was injected the TGF-beta family ligands through concentrations ranging from 3.1 nM to 200 nM.

Activin AB [1] = molecular target: T2, Activin AB (human, UniProt P08476 311-426; P09529 293-407); test: as above
T2 construct: Heterodimer of one betaA and one betaB subunit; bought (R&D Systems #1006-AB-005 / #1066-AB)
T2 chain 1: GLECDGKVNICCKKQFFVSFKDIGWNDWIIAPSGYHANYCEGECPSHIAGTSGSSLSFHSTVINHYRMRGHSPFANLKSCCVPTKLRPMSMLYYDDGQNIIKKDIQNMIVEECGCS
T2 chain 2: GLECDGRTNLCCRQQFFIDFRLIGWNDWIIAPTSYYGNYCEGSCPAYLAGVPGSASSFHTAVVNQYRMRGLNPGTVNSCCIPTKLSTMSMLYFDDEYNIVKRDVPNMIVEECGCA
Protocol: as §1

hBMP9 = molecular target: T3, hBMP9 (human, UniProt Q9UK05 320-429); test: as above
T3 construct: Bought protein
T3 sequence (looked up): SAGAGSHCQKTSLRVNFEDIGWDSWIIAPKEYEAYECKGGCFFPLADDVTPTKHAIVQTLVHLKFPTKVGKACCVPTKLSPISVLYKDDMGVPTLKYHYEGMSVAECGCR
Protocol: as §1

Activin B [2] = molecular target: T4, Activin B (human, UniProt P09529 293-407); test: as above
T4 construct: Homodimer of two betaB subunits; bought (R&D Systems #659-AB)
T4 chain: T2 chain 2
Protocol: as §1

GDF11 = molecular target: T5, GDF11 (human, UniProt O95390 299-407); test: as above
T5 construct: Bought protein; also called hGDF11
T5 sequence (O95390 299-407 limits assumed): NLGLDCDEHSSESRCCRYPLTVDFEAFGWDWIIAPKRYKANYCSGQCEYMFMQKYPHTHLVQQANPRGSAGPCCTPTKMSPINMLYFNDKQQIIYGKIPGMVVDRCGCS
Protocol: as §1

Activin AC [3] = molecular target: T6, Activin AC (human, UniProt P55103 237-352); test: as above
T6 construct: Heterodimer of one betaA and one betaC subunit; bought (R&D Systems #4879-AC)
T6 sequence 1: T2 chain 1
T6 sequence 2: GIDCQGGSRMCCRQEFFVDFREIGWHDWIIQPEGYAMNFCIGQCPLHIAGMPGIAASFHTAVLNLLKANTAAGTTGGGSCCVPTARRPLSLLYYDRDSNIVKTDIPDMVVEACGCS
Protocol: as §1

GDF8 = molecular target: T7, GDF8 (human, UniProt O14793 267-375); test: as above
T7 construct: Bought (R&D Systems #788-G8); also called hGDF8; growth and differentiation factor-8
Protocol: as §1

Activin A [4] = molecular target: T8, Activin A (human, UniProt P08476 311-426); test: as above
T8 construct: Homodimer of two betaA subunits; bought (R&D Systems #338-AC); also called inhibin-betaA dimer
T8 sequence: T2 chain 1
Protocol: as §1

hBMP6 = molecular target: T9, hBMP6 (human, UniProt P22004 382-513, limits assumed); test: as above
T9 construct: Bought protein
T9 sequence (looked up): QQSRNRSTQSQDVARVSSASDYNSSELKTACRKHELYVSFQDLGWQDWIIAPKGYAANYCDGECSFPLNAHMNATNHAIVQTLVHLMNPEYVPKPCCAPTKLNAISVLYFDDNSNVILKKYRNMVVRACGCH
Protocol: as §1

hBMP4 = molecular target: T10, hBMP4 (human, UniProt P12644 293-408); test: as above
T10 construct: Bought protein
T10 sequence (looked up): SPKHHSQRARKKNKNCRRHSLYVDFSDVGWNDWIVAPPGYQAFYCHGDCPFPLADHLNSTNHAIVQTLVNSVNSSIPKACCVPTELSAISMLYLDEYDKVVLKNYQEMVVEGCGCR
Protocol: as §1

Activin AC [5] = molecular target: T6, Activin AC; test: SPR (Biacore), mAb captured on anti-Fc, Activin AC injected, 37 C
Summary of the method: (§2)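 Association was monitored for 240 s and dissociation in buffer for 600 s. Rate constants came from kinetic fitting; KD was calculated as kd/ka and dissociative half-life as ln2/(60*kd), in minutes.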

Activin AB [6] = molecular target: T2, Activin AB; test: SPR (Biacore), mAb captured on anti-Fc, Activin AB injected, 25 C
Summary of the method: as §2

Activin AB [7] = molecular target: T2, Activin AB; test: SPR (Biacore), mAb captured on anti-Fc, Activin AB injected, 37 C
Summary of the method: as §2

Activin AC [8] = molecular target: T6, Activin AC; test: SPR (Biacore), mAb captured on anti-Fc, Activin AC injected, 25 C
Summary of the method: as §2

Activin AB [9] = molecular target: T2, Activin AB; test: cell-based or functional assay
Activin B [10] = molecular target: T4, Activin B; test: cell-based or functional assay
Activin AC [11] = molecular target: T6, Activin AC; test: cell-based or functional assay
Activin A [12] = molecular target: T8, Activin A; test: cell-based or functional assay

T1 sequence (P12643 283-396 limits assumed): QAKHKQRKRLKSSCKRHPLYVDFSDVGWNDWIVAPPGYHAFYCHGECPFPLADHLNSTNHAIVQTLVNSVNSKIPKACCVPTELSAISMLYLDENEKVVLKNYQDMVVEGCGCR

binding response (resonance units) for 200 nM ligand (hBMP2): 14.9 RU
binding response (resonance units) for 200 nM ligand (Activin AB [1]): 54.3 RU
binding response (resonance units) for 200 nM ligand (hBMP9): 11.7 RU
binding response (resonance units) for 200 nM ligand (Activin B [2]): 60.1 RU
binding response (resonance units) for 200 nM ligand (GDF11): 0 RU
binding response (resonance units) for 200 nM ligand (Activin AC [3]): 55.6 RU
binding response (resonance units) for 200 nM ligand (GDF8): -0.5 RU
binding response (resonance units) for 200 nM ligand (Activin A [4]): 56.5 RU
binding response (resonance units) for 200 nM ligand (hBMP6): 4 RU
binding response (resonance units) for 200 nM ligand (hBMP4): 19.3 RU
50 nM Ag Bound (RU) (Activin AC [5]): 32.6 RU
Kd (Activin AC [5]): 3.75 nM
koff (Activin AC [5]): 0.00331 s⁻¹
kon (Activin AC [5]): 881000 M⁻¹ s⁻¹
t1/2 (Activin AC [5]): 3.5 min
50 nM Ag Bound (RU) (Activin AB [6]): 28.2 RU
Kd (Activin AB [6]): 0.0341 nM
koff (Activin AB [6]): 0.000261 s⁻¹
kon (Activin AB [6]): 7.66e+06 M⁻¹ s⁻¹
t1/2 (Activin AB [6]): 44.2 min
50 nM Ag Bound (RU) (Activin AB [7]): 33.9 RU
Kd (Activin AB [7]): 0.0443 nM
koff (Activin AB [7]): 0.000458 s⁻¹
kon (Activin AB [7]): 1.03e+07 M⁻¹ s⁻¹
t1/2 (Activin AB [7]): 25.2 min
50 nM Ag Bound (RU) (Activin AC [8]): 30.1 RU
Kd (Activin AC [8]): 2.24 nM
koff (Activin AC [8]): 0.00156 s⁻¹
kon (Activin AC [8]): 698000 M⁻¹ s⁻¹
t1/2 (Activin AC [8]): 7.4 min
IC50 [M], inhibition of 30 pM Activin AB in A204/CAGAx12-Luc Smad2/3-luciferase bioassay (Activin AB [9]): 1.4e-10 M
IC50 [M], inhibition of 50 pM Activin B in A204/CAGAx12-Luc Smad2/3-luciferase bioassay (Activin B [10]): 1.3e-10 M
IC50 [M], inhibition of 4 nM Activin AC in A204/CAGAx12-Luc Smad2/3-luciferase bioassay (Activin AC [11]): 1.3e-09 M
IC50 [M], inhibition of 100 pM Activin A in A204/CAGAx12-Luc Smad2/3-luciferase bioassay (Activin A [12]): 2e-10 M
B1: H4H10436P2 (antibody, human IgG4, V domains shown)
VH: QVQLVESGGGVVQPGRSLRLTCVASGFTVSSYGMHWVRQAPGKGLEWVAVMFYDESKKYYADSVKGRFTISRDNSKNTLYLQMNSLRVEDTAVYYCARDEQLDFEYWGQGTLVTVSS
VL: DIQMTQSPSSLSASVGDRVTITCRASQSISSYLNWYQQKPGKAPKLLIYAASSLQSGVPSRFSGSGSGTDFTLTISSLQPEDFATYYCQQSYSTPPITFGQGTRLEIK

— patent US20150037339A1 (Regeneron, published 2015)
